Assay [1] concerns APP processing. In words: Overexpression of Fe65 in APP751-transfected CHO cells, APPs and Aβ. The assay is classed as cell-based. The conditions noted are these: preliminary studies. From the text:
In the second set of experiments, Inventors determine whether overexpression of Fe65 impairs APP and LRP processing by acting as a dominant or competitive negative mutant. Inventors briefly mentioned the preliminary results above with APPs and Aβ when Fe65 was overexpressed in APP75 1-transfected CHO cells. These studies are repeated for reliable quantitation and other aspects of APP trafficking are examined, as performed in the earlier aims. Inventors also assess the binding and uptake of LRP ligands. To ascertain that these outcomes are due to inhibition by Fe65, Inventors overexpress Fe65 mutants that cannot bind either APP or LRP, i.e., ΔPID2 and ΔPID 1, respectively. If these mutant constructs mimic the results from full length Fe65 even though it cannot bind it's known substrate, then it supports the idea that Fe65 or Fe65L in excess behaves as an inhibitor. […] The premise is that an overabundance of Fe65 result in the failure to link up limiting amounts of LRP with APP. Thus, co-expression of Fe65 with LRP should greatly diminish the effects of Fe65 expressed by itself In the third set of experiments, Inventors test the concept that other APP and LRP interacting proteins with only single binding sites, such as mDab, X11/Mint-1 and JIP-1, compete for binding with Fe65 or Fe65L, and by displacing Fe65, produce a partial loss of function with respect to APP processing. […]

For assay [2], the system named is Aβ release. The settings on record: exogenous RAP, cells overexpressing APP751; cited from earlier work.
In assay [3] the target is T1, Fe65 (UniProt O00213 1-710, limits assumed).
T1 construct: also called Fe65 adaptor protein; in vitro translated Fe65
T1 sequence (looked up): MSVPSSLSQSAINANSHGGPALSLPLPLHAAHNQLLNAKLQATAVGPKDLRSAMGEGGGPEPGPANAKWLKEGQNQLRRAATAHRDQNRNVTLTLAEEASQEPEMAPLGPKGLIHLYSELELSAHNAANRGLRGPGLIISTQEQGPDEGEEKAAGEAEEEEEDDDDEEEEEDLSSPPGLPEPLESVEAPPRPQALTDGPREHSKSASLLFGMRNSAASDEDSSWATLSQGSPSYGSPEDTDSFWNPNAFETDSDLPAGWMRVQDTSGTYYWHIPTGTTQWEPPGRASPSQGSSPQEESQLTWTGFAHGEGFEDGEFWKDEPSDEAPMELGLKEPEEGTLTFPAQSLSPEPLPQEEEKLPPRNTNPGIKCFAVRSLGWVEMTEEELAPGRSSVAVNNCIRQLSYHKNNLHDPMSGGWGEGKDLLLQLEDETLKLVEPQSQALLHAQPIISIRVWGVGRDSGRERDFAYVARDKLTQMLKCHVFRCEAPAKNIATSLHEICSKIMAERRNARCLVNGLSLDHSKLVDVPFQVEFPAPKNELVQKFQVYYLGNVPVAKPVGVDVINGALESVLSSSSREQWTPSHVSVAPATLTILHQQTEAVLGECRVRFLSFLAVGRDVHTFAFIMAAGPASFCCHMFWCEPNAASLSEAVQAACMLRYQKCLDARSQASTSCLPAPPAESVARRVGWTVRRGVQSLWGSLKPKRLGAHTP
In words: GST pull down of in vitro translated Fe65.

B1: Fe65: cytosolic adaptor protein with separate binding domains (PID1, PID2) for LRP and APP, overexpressed in cells (protein)
chain: MSVPSSLSQSAINANSHGGPALSLPLPLHAAHNQLLNAKLQATAVGPKDLRSAMGEGGGPEPGPANAKWLKEGQNQLRRAATAHRDQNRNVTLTLAEEASQEPEMAPLGPKGLIHLYSELELSAHNAANRGLRGPGLIISTQEQGPDEGEEKAAGEAEEEEEDDDDEEEEEDLSSPPGLPEPLESVEAPPRPQALTDGPREHSKSASLLFGMRNSAASDEDSSWATLSQGSPSYGSPEDTDSFWNPNAFETDSDLPAGWMRVQDTSGTYYWHIPTGTTQWEPPGRASPSQGSSPQEESQLTWTGFAHGEGFEDGEFWKDEPSDEAPMELGLKEPEEGTLTFPAQSLSPEPLPQEEEKLPPRNTNPGIKCFAVRSLGWVEMTEEELAPGRSSVAVNNCIRQLSYHKNNLHDPMSGGWGEGKDLLLQLEDETLKLVEPQSQALLHAQPIISIRVWGVGRDSGRERDFAYVARDKLTQMLKCHVFRCEAPAKNIATSLHEICSKIMAERRNARCLVNGLSLDHSKLVDVPFQVEFPAPKNELVQKFQVYYLGNVPVAKPVGVDVINGALESVLSSSSREQWTPSHVSVAPATLTILHQQTEAVLGECRVRFLSFLAVGRDVHTFAFIMAAGPASFCCHMFWCEPNAASLSEAVQAACMLRYQKCLDARSQASTSCLPAPPAESVARRVGWTVRRGVQSLWGSLKPKRLGAHTP
B1: in assay [1], the APPs secretion result is listed as “augmented” and the Aβ release entry was “reduction”.

B2: RAP: 39 kDa receptor associated protein, an LRP chaperone molecule that blocks binding of all known LRP ligands (protein, UniProt P30533 35-357, looked up)
Alpha-2-macroglobulin …: YSREKNQPKPSPKRESGEEFRMEKLNQLWEKAQRLHLPPVRLAELHADLKIQERDELAWKKLKLDGLDEDGEKEARLIRNLNVILAKYGLDGKKDARQVTSNSLSGTQEDGLDDPRLEKLWHKAKTSGKFSGEELDKLWREFLHHKEKVHEYNVLLETLSRTEEIHENVISPSDLSDIKGSVLHSRHTELKEKLRSINQGLDRLRRVSHQGYSTEAEFEEPRVIDLWDLAQSANLTDKELEAFREELKHFEAKIEKHNHYQKQLEIAHEKLRHAESVGDGERVSRSREKHALLEGRTKELGYTVKKHLQDLSGRISRARHNEL
Consider B2, for which, in assay [2], the Aβ release entry was “dramatically reduced”.

B3: GST fusion protein of the LRP cytoplasmic tail with a single alanine substitution at L of the YATL motif (other, not shown: a dimerising Fc or GST; small tags and cut ends)
chain: KRRVQGAKGFQHQRMTNGAMNVEIGNPTYKMYEGGEPDDVGGLLDADFALDPDKPTNFTNPVYATAYMGGHGSRHSLASTDEKRELLGRGPEDEIGDPLA
modifications: N-terminal GST fusion, not carried in the letters
notes: Position 4510 is derived from the motif's printed limits (4504 to 4510)
As for B3, the “reduction of binding against wild type LRP” value (“reduction of binding” for short) in assay [3] was greater than 50%.

B4: GST fusion protein of the LRP cytoplasmic tail with a single alanine substitution at N of the second NPXY motif (other, not shown: a dimerising Fc or GST; small tags and cut ends)
chain: KRRVQGAKGFQHQRMTNGAMNVEIGNPTYKMYEGGEPDDVGGLLDADFALDPDKPTNFTAPVYATLYMGGHGSRHSLASTDEKRELLGRGPEDEIGDPLA
modifications: N-terminal GST fusion, not carried in the letters
notes: Position 4504 is derived from the motif's printed limits (4504 to 4510)
As for B4, the “reduction of binding” value in assay [3] is greater than 50%.

B5: GST fusion protein of the LRP cytoplasmic tail with a single alanine substitution at Y of the second NPXY motif (other, not shown: a dimerising Fc or GST; small tags and cut ends)
chain: KRRVQGAKGFQHQRMTNGAMNVEIGNPTYKMYEGGEPDDVGGLLDADFALDPDKPTNFTNPVAATLYMGGHGSRHSLASTDEKRELLGRGPEDEIGDPLA
modifications: N-terminal GST fusion, not carried in the letters
As to B5, in assay [3], the “reduction of binding” value is greater than 50%.

Values taken from US20040038338A1, “Influence of LRP cytoplasmic domain on Abeta production” (priority 2001, published 2004).
